According to patent publication US10648014B2, “Degradation resistant peptide based biosensors” (Purdue Research Foundation, priority 2014, dated 2020):
Square brackets hold non-standard residues; d marks the D form. Ends that are not written are not given here. * marks the point of attachment. Biotin = O=C1N[C@H]2[C@H](CS[C@H]2CCCCC(=O)*)N1; photo‑cleavable linker = not defined here

How the values were obtained:
[1] = tested on: K562 chronic myelogenous leukemia (CML) cells; type: in vitro ADME, Human
Experimental: Biosensor Enrichment: K562 cells were incubated in lysis buffer for 20 minutes. Samples were spun down in 2500×g for 5 minutes at 4° C. Lysate was transferred to new Eppendorf tubes and treated with UV light (CL-1000 Ultraviolet Crosslinker (UVP, Upland, Calif., USA)) for 20 minutes to cleave the photo-cleavable linker. Photocleaved lysate samples were incubated with streptavidin coated agarose beads (Pierce) in 96 well polypropylene filter plate (PALL, Ann Arbor, Mich.) for 20 minutes at room temperature. Following incubation, the plate was spun down at 250×g for 30 seconds over a 96 well collection plate. The wells were washed 4 times with 200 uL of PBS and 2 times with MilliQ water, and spun down for 30 seconds at 250×g after each addition. Beads were resuspended in 15 μL of (75%/25%/0.1%:acetonitrile/water/TFA) elution buffer and shaken for 15 minutes at 600 rpm. Biosensor samples were spotted at 0.5 μL on a MALDI plate with 0.5 μL of matrix (10 mg/mL α-cyano-4-cinnamic acid and 10 mg/mL ammonium hydrogen phosphate, dissolved in 75%/25%/0.1% acetonitrile/water/TFA). Mass analysis was performed using an Applied Biosystems Voyager 4800 MALDI-TOF/TOF using linear positive mode.
Human K562 chronic myelogenous leukemia (CML) cells were exposed to either the control biosensor SEQ ID NO: 52 or the biosensor SEQ ID NO: 47 for 5 minutes as shown in FIGS. 8-13. […]

[2] = target: Fyn kinase (Homo sapiens, UniProt P06241); test: In vitro kinase assay against Fyn kinase; type: biochemical; details: FIG. 2
Experimental: (§1) In Vitro Abl Kinase Assay: The in vitro kinase assays were performed in triplicate in Dulbecco's Phosphate Buffered Saline without Calcium, Magnesium, or Phenol red in water bath maintained at 37° C. The total volume of the assay was 200 uL, and contained 1 mM ATP, 10 mM MgCl2, 5-25 uM of the biosensor, and 6 nM of Arg or Lyn Kinase final concentrations. Initiation of the assay was the addition of 1 uL of Arg Kinase to the reaction mix and heated at 37° C. Aliquots of 20 uL were collected at intervals described over a total run time of up to 60 minutes.
(§2) In order to assess the selectivity of the biosensor SEQ ID NO: 47, we tested against Lyn and Fyn kinases using the in vitro kinase assay.

[3] = tested on: Abl kinase; test: In vitro Abl kinase assay, phosphorylation detected by mass spectrometry; type: biochemical; details: for phosphorylation by Abl kinase: in vitro kinase assay, mass spectrometry, FIG. 2; for selectivity toward the Abl family of kinases: in vitro kinase assays Abl vs Lyn and Fyn
Experimental: as §1
Referring now to FIG. 2, to evaluate the importance of the SH3 targeting sequence, we performed in vitro kinase assays comparing the peptides using the Abl kinase. Phosphorylation was detected using mass spectrometry.

[4] = target: T1, Bcr-Abl kinase (Homo sapiens, UniProt P00519); test: K562 cell kinase assay, intracellular phosphorylation of biosensor; type: cell-based; details: K562 cells, 60 minutes incubation, FIG. 6
T1 construct: endogenous in cells; host or cells: K562; the other entry of the earlier key: BCR (P11274, Breakpoint cluster region protein)

[5] = tested on: K562 cells; type: cell-based, Human
Experimental: Flow Cytometry: K562 cells (about 1×10^6 cells/mL) were incubated for 30 minutes with FITC labeled biosensors at various concentrations, 1-50 μM. Cells were centrifuged at about 2500 rpm for about 5 minutes at 4° C. Media was aspirated and cells were washed 3 times with fresh media. A FC500 flow cytometer (Beckman Coulter) was used to analyze 50 μL aliquots of suspended cells.
Flow cytometry was used to verify the uptake of the biosensor SEQ ID NO:47 by K562 cells. We conjugated a FITC fluorophore to the cysteine residue of the biosensor by maleimide reaction.

[6] = target: Lyn kinase (Homo sapiens, UniProt P07948); test: In vitro kinase assay against Lyn kinase; type: biochemical; details: FIG. 2
Experimental: as §1, §2

[7] = biosensor incubated with Abl kinase, Michaelis Menten, FIG. 3

Lyn kinase, sequence (P07948 whole entry): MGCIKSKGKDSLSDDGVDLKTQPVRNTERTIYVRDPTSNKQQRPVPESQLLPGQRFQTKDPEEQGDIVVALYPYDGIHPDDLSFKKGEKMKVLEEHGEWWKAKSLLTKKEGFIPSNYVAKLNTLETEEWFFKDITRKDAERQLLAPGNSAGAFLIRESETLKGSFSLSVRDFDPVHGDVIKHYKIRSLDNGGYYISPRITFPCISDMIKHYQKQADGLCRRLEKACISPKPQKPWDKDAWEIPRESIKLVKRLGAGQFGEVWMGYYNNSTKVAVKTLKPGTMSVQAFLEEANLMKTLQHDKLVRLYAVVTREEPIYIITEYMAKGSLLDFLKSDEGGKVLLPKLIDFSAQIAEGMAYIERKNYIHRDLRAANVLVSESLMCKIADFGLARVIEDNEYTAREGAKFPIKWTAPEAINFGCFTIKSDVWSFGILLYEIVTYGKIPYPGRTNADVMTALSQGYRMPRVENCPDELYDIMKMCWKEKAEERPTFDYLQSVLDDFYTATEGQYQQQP
Fyn kinase, sequence (P06241 whole entry): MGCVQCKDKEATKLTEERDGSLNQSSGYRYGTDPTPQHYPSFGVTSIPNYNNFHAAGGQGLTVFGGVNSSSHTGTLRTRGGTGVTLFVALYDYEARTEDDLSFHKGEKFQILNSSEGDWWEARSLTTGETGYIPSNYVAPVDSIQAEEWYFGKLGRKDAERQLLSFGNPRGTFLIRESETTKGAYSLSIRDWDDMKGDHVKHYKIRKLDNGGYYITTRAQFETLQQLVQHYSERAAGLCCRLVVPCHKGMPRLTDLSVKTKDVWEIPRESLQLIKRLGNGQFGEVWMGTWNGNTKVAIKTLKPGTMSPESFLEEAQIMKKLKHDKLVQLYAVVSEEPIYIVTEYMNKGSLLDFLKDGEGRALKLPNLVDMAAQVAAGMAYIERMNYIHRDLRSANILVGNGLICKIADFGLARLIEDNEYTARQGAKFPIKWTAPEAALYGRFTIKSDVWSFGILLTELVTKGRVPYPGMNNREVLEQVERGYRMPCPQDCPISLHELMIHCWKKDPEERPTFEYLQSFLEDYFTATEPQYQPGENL
T1 sequence (P00519 with tags, fused parts or gaps): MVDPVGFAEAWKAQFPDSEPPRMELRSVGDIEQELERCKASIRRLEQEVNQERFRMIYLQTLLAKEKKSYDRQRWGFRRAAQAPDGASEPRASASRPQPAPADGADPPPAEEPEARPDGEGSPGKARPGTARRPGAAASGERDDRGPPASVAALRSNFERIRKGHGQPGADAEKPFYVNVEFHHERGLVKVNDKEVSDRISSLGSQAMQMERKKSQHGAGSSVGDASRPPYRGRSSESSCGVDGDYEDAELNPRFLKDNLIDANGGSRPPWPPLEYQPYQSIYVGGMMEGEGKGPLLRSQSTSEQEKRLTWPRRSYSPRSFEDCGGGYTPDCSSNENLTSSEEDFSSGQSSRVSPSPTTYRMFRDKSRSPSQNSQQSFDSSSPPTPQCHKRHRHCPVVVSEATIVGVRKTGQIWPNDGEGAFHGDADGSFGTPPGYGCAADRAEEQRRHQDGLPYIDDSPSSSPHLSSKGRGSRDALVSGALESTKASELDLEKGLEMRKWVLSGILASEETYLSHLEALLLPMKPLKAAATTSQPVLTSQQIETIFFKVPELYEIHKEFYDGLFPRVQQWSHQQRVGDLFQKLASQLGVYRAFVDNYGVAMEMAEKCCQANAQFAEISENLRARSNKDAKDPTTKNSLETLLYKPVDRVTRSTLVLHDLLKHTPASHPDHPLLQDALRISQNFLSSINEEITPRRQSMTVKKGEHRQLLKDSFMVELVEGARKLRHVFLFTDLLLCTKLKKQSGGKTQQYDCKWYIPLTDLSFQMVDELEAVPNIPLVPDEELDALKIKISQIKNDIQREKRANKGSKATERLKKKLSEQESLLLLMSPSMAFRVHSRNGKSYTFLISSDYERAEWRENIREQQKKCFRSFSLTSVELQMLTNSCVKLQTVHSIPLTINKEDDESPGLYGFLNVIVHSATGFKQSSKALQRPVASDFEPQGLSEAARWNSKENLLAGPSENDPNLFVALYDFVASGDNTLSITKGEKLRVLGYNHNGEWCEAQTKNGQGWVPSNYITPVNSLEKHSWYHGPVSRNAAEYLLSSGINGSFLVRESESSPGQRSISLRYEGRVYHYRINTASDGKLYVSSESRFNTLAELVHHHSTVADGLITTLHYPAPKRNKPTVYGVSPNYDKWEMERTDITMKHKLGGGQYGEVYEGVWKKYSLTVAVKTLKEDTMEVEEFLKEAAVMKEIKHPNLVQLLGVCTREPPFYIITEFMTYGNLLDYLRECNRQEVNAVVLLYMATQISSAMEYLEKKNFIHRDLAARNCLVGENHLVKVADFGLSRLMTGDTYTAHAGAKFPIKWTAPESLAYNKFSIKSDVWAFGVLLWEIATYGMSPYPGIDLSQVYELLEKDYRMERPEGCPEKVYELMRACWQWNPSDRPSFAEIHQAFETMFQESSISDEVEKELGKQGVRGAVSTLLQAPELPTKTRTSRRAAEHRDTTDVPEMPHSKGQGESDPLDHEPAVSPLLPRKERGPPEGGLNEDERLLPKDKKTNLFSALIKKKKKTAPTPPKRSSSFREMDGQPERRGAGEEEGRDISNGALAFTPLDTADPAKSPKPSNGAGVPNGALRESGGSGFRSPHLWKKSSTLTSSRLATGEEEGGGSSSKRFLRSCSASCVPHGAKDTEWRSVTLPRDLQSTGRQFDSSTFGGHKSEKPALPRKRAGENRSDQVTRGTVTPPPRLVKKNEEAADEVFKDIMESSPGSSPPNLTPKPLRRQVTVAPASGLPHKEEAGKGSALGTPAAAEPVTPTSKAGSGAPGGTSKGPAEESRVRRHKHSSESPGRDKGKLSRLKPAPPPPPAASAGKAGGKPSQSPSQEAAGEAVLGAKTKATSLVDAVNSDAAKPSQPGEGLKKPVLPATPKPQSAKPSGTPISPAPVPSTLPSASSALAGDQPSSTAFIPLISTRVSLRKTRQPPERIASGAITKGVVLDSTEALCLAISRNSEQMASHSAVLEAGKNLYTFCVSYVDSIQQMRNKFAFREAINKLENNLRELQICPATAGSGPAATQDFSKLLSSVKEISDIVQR

| Substance | degradation after exposure to K562 cells [1] | selectivity for Abl over Lyn or Fyn kinases [2] | Km [3, 7] [µM] | Vmax [3, 7] [pmol/mg/min] | phosphorylation by Abl kinase [3] | selectivity toward the Abl family of kinases [3] | intracellular phosphorylation of the biosensor [4] | uptake by K562 cells [5] | phosphorylation by Lyn kinase [6] |
| --- | --- | --- | --- | --- | --- | --- | --- | --- | --- |
| EAIYAAFAKKG-Kbiotin-photo-cleavable linker-GCGAPTYSPPPPPGGRKKRRQRRR (EAIYAAFAKKGK(Biotin)[photo‑cleavable linker]GCGAPTYSPPPPPGGRKKRRQRRR; reading uncertain) [SEQ ID NO: 52, reference compound] | almost completely degraded | – | – | – | – | – | – | – | – |
| KbiotinkkafpaayiaeG-photo-cleavable linker-GCGAPTYSPPPPPGGrrrqrrkkr (K(Biotin)[dK][dK][dA][dF][dP][dA][dA][dY][dI][dA][dE]G[photo‑cleavable linker]GCGAPTYSPPPPPGG[dR][dR][dR][dQ][dR][dR][dK][dK][dR]; reading uncertain) [SEQ ID NO:47] | essentially intact | selective for Abl over Lyn or Fyn kinases | 7.5 | 849.5 | phosphorylated with reasonable efficiency | relatively selective toward the Abl family of kinases | observed | confirmed the uptake | did not phosphorylate |
| KbiotinkkafpaayiaeG-photo-cleavable linker-GCGGrrrqrrkkr (K(Biotin)[dK][dK][dA][dF][dP][dA][dA][dY][dI][dA][dE]G[photo‑cleavable linker]GCGG[dR][dR][dR][dQ][dR][dR][dK][dK][dR]; reading uncertain) [SEQ ID NO: 53] | – | – | – | – | not appreciably phosphorylated | relatively selective toward the Abl family of kinases | – | – | – |
